{"source": "paper PMC3663881", "about": "(Journal of biomolecular screening, 2013)", "molecular_target": "T1, RhaS-GB1201b (RhaS L201R-GB1basic) (UniProt P09377 1-278, L201R)", "T1 sequence": "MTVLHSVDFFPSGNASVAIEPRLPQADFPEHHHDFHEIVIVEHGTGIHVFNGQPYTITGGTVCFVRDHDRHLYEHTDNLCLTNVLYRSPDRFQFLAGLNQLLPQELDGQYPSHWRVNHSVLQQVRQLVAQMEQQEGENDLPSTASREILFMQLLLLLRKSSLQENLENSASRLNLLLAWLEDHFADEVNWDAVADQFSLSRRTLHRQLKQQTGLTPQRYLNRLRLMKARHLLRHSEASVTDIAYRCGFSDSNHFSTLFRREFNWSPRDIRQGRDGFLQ", "assay": "EMSA", "data": [{"binder": "rhaBAD RhaS site probe (oligos 3058/3288) (dsDNA) DNA 1: ACGTTCATCTTTCCCTGGTTGCCAATGGCCCATTTTCCTGTCAGTAACGAGAAGGTCGCGAA DNA 2: TTCGCGACCTTCTCGTTACTGACAGGAAAATGGGCCATTGGCAACCAGGGAAAGATGAACGT", "values": [{"measurement": "binding result", "value": "binds"}]}]}
